Assay: soluble on expression in E. coli; label from the status in PepcDB or PDB records

Sequence	soluble on expression in E. coli
MAHHHHHHMPDGQQQSAKCATQVQNGEEATRNTYPRRDDTKLHVGLDYSSFYLDTPYKIIKCMNKGSHFLYWGSDTLCGQSDQVTKEFKMNEMKKNNCEELRNSRFIFFDSQKKLLVLRYNIRKNSFNYVSDSDPIYVYFYQLHEKNFLDDNIIKENKNSLLIYPYTYVKIWESLTCYINEEVINKIEPVNKTFCSSFLEEEVEEEKKKKKGGTDLRREEEMNLCNQPYMFYSVIPRYPASKTYPKEGRVSGGSRHKKEDNVGVITAEGDGASSINMGGDGSGGINTEGDGSGGAGGINMEGDHPVDPDEPPNDHLDGA	not soluble
MAHHHHHHMPHIPRNHYLVVHDAIRKLLGPDAQLAAFVKAQHAFQCDMLVNDARTDPEELTRAGARHSGGGIGDDAAAKAGVGELARGLQAVLGICDVVPHTRRVDVIFRDRSLIQLALGAAKRDLPYALETGADVNQEPDWRLRNRLRISLGYDEELFLAQCTRSMNVAARILEKCAFDYARYSALMSTNAAMAAMYEASGQRWQAVLPPVTYWQAHCYSLMKAYPCRHYQQIVATVEHNFAAYYGEFPMTNPYCDGEDLNTIQVVRWLCEAFNAGAAVSHVTSAASSPVTVNEWQTVDCSMPAAMEDGDAEKGAAVMDNMADGRSSQEGRH	not soluble
MAHHHHHHMPINPEYIPLPKSKEMFAIASWRDSPGLNATPAAHPGVSGSPHLASLDALRNGKGMAGMHAAATTTTTTTNTVTAAGGSLLPPAVQPAEDSKDAAKSKAPLTVAAGKKKKRKPASGATTSTASVAGSGVRSDDVDDFFVHILLPSCVSMQTLEFELQAQTTPLKSIEVGLPKVLFPRKPVGGAGGDASPPTTTALAPAVASAKIVSSPSCAPAVNPTNNELSLPLMRLPPADLPEPAPSESSCAAPPSASAAAAAHVNGDGTASAAAASGEHHGGEYQVSLLFAEKAEAEKTVTFVQRRWPTAAVSLASRSRSVLNATLVLKGMPNQAKTETVLTEMQNLPHTPSYVRLLRSERGVFKGVVFVKYANCEIAEECKLRLEKFVLGSRPLKVEFKKKSTAAASVSAAVIESKRSLQELVRELRVSAEHEGFHLSRSDVAKEALKVLKQLCQSYGLLFDMNDQQVTVRRVLGSNGIGSEKPSPALRPQSMAPAWAPATPAPLRPMDFKGISHWKDIRSQASTLGIMRPLGPEDGKPAFSAGRGRPL	not soluble
MAHHHHHHMPPSTYAATAANAEAQGDDVDMHVMTYDQRCHGRSTFVGGEDHLSIEVLVRDFLDVLQYAKTELYSNSNVYVLGHSLGGAVVARALSGNKSALERVSGVLLVDVVEGTAQLSLQHMKSFLKNRPNTFPEVKDAEVWFLRMGGMQNPQGAAVSVPPLLQKNDETGLWQWRTDIRKMESVWDGWFAGLDEAFISLPCAKMLCTANAERLDKTLTVAQMQGKFQLEVIGNGCGHYVMDDATPTVVAKVRRFVKRNEELAQKLQLMNKNLSGQKINTTVPPTRT	not soluble
MAHHHHHHMPRDTHVLRFKVLTVECAALPDGQQYTVMYHRGNSNRSTPCYTAQGGVINFASMPEGAAVVHFKAGHGGGRFAPKYIRFMIEEYTRGMPRRLVGETEADCTQVLKDYGASGSGILTVVFRLYGTTAKMRIAVLVYPEHAPPLSFDGLIDPSEVAAPLPTQAVKVMSRGEAMMILMGLETLLERRRAMKAEGQSLPQSREEKKLAELEKRRKALVGSEGLATEVIKTRCEEVVAVQYTALARKHRNNFIGQTAAYLREMAMLAGEDFIGDDGDSSGDTVLEQLNRVNRSIEEVEMQVKKLEEEQAALRRIQHKVDVMAELTVSLDKVAALQQKMQVLKESRTALTEAMKKQAAKKNTPLAREVTAINTRIAALNAEQQQMAPRIQHMVAVAASHVVKWARSKNPPELDTKSCIDSLHETGGNARNPVDDLFSDAGKPKTSKEQSMLDDVQRKQVVEALKGLETTTAPLSTRSPTSASSSSGHRTPRDLFADAGLPSMGDFSDTKPKEEETATKRKGDTSTTPLHEDPLKPSGLGVDMFSAKPAPAAASNVPAGLPSMNDFMRSSTASRQQSAQPTFDFGSILQTSSVSPQMGGGFVLEPQPSEAAASSFAAAAPSAVSGAYQTKDYPYYDEMDDFTVPPDAADSKNYGAVEITGGIFSFQDDTSSPAYVAPRPTFDFGPSSGGDDRPSGVGVTVSPAETFSFGGGAADELSTNNPRNSSDNPYTGITNLPTYNFSS	soluble
MAHHHHHHMQKIQNAVRRRSRFFKWDVKWYSSKVKVEKKAGERHNDRHDSHDSHDSHKDIPQDSRPDTRVGQERKYNLWRWGCSGEGIFSSVKVGEKNKMPEKVPNFENAKIEKLSAGCDHAAFIVDGRIFTYGLNDKGQLGRSIEEENDQNKSYTLTPREVKTEGNVKFKDVCCGYKHTVAVDVNNNLYSWGWGGNFFKGANGLGHGNKQNLSTPKKVESFKSDDSEFVNICCGDQHSLVLTKNGKVYGCGRGEFGRLGKGNHGDQLFFEEIDFFISNNITVKGISCGHSFSAALSTDGEVYVWGRNDYGQLGIENSIGDLYSHEVYPNKVKYFDMENIKIKFIACGDNHMIACSENNVIFFWGSRAWLEPKAITLSPLYQNSVIKKNIDKIEAGGNTYYYSMLLSDNKLYSWGKYNSSCLALGDKKNHNEPTLVDSKLFNDEIVCDISCGRGRVLAKTLAAD	not soluble
MAHHHHHHMQKLRADWTKHFDSEKASMTAFRDYDFERRVNDMRRLQNAVDHFDHAVRQGMMAMKEIASAYEAVGQAFTELTLTNNNPVPGPGEAEEPNPYPTEADVQYMSQPNAGAAAADYAASVASTRMPDEANSQVRRLAKTFAEEARRINEGPPFQSYNAGIHRDVHNRLLPVLEHLKSINEYRHKHIEALERYNKYKAEVEKVEKHYTKKGKPFCDSKGHKKYTEKRDEAWKEYITRRDKFNKTFGMLMEVNDHAAAQIIHRYLVLNHEYLQQLVASMDRVLPAMAEVYPLNNEYNSLQNTLILEAVANAKTPFADHSKIRSKQADSDKSDGAGDERHEDVQEAMDAHYEAQQSTLTSMSSDGGSNLASGSRLEDSVSYDAHVNPSTALESMEQPPDPEQDDV	soluble
MAHHHHHHMQQSLKNQEHIWAVLQKMRMEMNECFAEHERMLRQAHGQLKERLDKIESAFVARNGGVGQLVGNSSSSLGHLDHATPVYTRFVSDKKGSPAGMRVTMLSTPPNERMQLMPPDSRGARSDVLPQPVDPTDWVALAAPSRQEATPAVSPHNRWTNDDSIHAEKTPSVDATCFEALNNLMNDDDFQHSTLESVIPSYTQDDDSKQLQSQPNLGTYTKKNDIIHMGAPGSSQTQHFTKSLKVTYMDGRPQAVPIPDGPPDEPDKLGIDVNAQCKVLVEFKRKRVLQFESKEYVPPGSYVMVGGDRGEDLGLVTYTWCETTKSLKGELGEFGNGSNKTVVLCVGLTGSTLTRSIGLGAGTVLRLADDSDVKQLHTVQVELERRAIDVCSQRVLERGLPMTIVDAEYQFDKKKLTFFYEAQQRMDFRELVRDLYKSFRARIWMELVEN	not soluble
MAHHHHHHMQRHTVEKKLQRSTHAAECHTDVAVVRLPHVQREVRQRLVHHAARVAVDSSLRQGRHNRVGHLKGKTRRAMPSVPAAARARVAVHRLRPGHVARRVVVARAAPEHHHALRKHTVVQHLPPFLVQVAPHHKPRGRRHNRVRWKKFGKGCTSFHLTVVCKHHSGAAARQLNFLLRTWHT	not soluble
MAHHHHHHMRKKMKTLHLTGKKNFLFQNMQLRLYKEAPPKVFNKKSSHSSLWIQRQITDRYVLKAKNDNYRSRAAYKLIELDNKYMFLKKNKTILDIGCYPGSWCQVILERTKNYSNEIIGIDKKIMDPLPNIHFIHAEIGGAKDNPNDSNLVDVKLREILQGKKVDIILSDAAVPCVGNKIDDHMNSCELTLGITNFMEQYINMGGTYVVKMYLGSQTDNLKTYLKTIFQFVNTTKPKASRRESREIYLVCRNFLGRKKIGEDVQVKGAFSLKEGYY	not soluble
MAHHHHHHMRKLSGDLKATAATPLTPPVTTPQPQPDGTDRSKSAGGQATYEPLHVLGQGSFGVVMMARVRETGKMVAVKKVLFDRRLHHRELLLLRDHLGPGTHAGQAGTGNHDDPGKEAGKTDPSNTNNSAGEVGFTPLGDLASVPTTVSYHPCIVRLLDHFTVAGPNGEQYLYIVMDYLPLDIHHLHHIYLRQKQQRMPFILVKVIMFQLARALMFLHLRGICHRDVKPSNLLIDPETGVLKLCDFGSAKVMQPQGVNGPIEKNVSYICSRYYRAPELLLGSLYYHFHVDMWAAGCVLAELLCGEVLFKGASTVDQMAEIFKVLGAPSRQELLALNPQGAEALFHATGAGLEVTPTSAANTATSSDYLQRYHALRIKALQWQNVLPPNTPPAAVSLVGELLRYTPAERLSAAEVLEHSFFDDIFAEDASLPNGAPLPVSMFEVTAEEMEALPPWLLERMASAEASARRRHVSAGGSGKVVPPQKRQEQEGRK	not soluble
MAHHHHHHMRMSLTTRRPFCPVLLNIGSSRAVTLSHFHAKVCPSITATVKQTIRELDDEASPNHQRRQESCFSSGELRLRPYGFSPERPQLQHESWSCAWHSYLNAVRLRGEVSAAGVAPLPPTATSANSTSHNDDEFFPMTGTLTLPVPVVVPTSNNEPSNETIMMEFFRVDAFIPVRVQMYHVMRRLIKMQAVWNNIVAIGIVVPTHEVEYFISAARAAHASDGERTPHALLSRKPSVLVYDPEGLRFQAPESKRLRK	not soluble
MAHHHHHHMRPTFPALGSRAKGYENRVMVYAHRRHRAWYLPPKLAHARSPLANKSPDEYGNTWDPRTGVEWYHRLRRRGAYRHWPWARWNDDPVRQHQELSCRRTFSAAVTGANEGVPLWNYYAEVGQEYGLPSHFPLSFMAPFIHQYTSRAWSRKEIERHLKVVEERTGLRTIQQACDATSELLEWGEEEMGVVPHGLLQHVVMLAEDIVLQNKKKAYRKAAHERGILRTTTMERYYALPHLRTGPPMPTTLEQPSGEFPWGKFSTMVGGTRIHPLYRPDGFFKDNMYPA	not soluble
MAHHHHHHMRRIQLAFLTKLWQRRNCGSFNERALVQRTCEHIYCSSSAREQLRQLIHESSVENALRHLGEFSNDVSVLKGSAWLGQLSKAPDVVGRIAVILPQFEKWYVARKAPEKVTMHEPWDWYPKARFMRRRFVFHYGPTNSGKTHAALETLVKAKSGVYCAPLKALAAQVWKRIDASVPCDLLIGDERRFGGGAEHVSCTVEMTPIDYQIDVGVIDEVQMIADRDRGWAWTRALLGLPAREIHLCGEERAIPLIRKVLYKTHELQRLEVVPHKRLVPLEVSPSLDGDLRRIENGDTLVCFSRRAIFDMKKKLENISGMAPHCIYGSMPFSVREAQADAFNNGTRDVIEGKSGKKHVLISTDAIAYGLNMSIERIIFTSMRKFDGKQMVTLPQATILQVAGRAGRFGVLRSHKFGRCTTLDSNDFAVLCEAVNSRLPSLQKAGLLPTAEVLELYIRLREAEEGGRVTENNLASFYQRMREFSECCQASDLFFPCDLSRSLLQVAKELEAVTDLSLSDRILFCYVPLNDRGKETYDLLRAFGHDHAAGRHVVLRIDEEFERLVKQCDLVCSGDTRRAHQVLTRMEHLYRVAEMYCWLAWRFGKTFVHLETATALKERAALKMEEILQHL	not soluble
MAHHHHHHMRRTLALYKQGRSREPNVGRLLYGKRKNLVHHASEAKPSVTAVLAQTPTERLPVAVKHALQVKELHREQIATLLKQHRALRRFDRTEVIVQALRDAKQPLTSQHYCVLMAHANDERQTRRALQFWKDAVSEGKVNERLHGALMSTYRNAGNWRAAMRHCERMWRDQQVLDPLAAHAVMNACRRYGPWQMGLKVFSDAVQHGTKPNGVVYLELLRLIAQSKMPARWMYGLAILRALEASVEVTAGHYNAVLATMGGRNWEKGIELFHSMQVHNVQPSTETLNTVQQLHPHSVSHCIRCVAEAHALGMPITDTMYRNVLLNLFRMQLNNEATQFAEREYKLDCVDAGNPLTHTLSLSVAMVDALLSHPRPHDALLVYESFQDKIGDVVAAATRQLGTSGSLEQRWLVQGRVAVVDHNVLLSTTFESLIHHYDSVFVPFASVRLLVRRARENGHSVQGLHMKTTLRRIGLLLKREEWRMLRVLPYAHQLLAHTYLSEGGPASPEALKALREEAETQSLLPESPQTPTAVAKAVSAYGQALLRRLTPVGEAAEVAGAVRADQSGERGTEDAAKNLVIREAAGGAADTGASSLVSSKAWPAATAPFPMVLHSPRRITSVERVTAVAAMLKSLNPDAEVHVLSTNASQLAAVRHWNAVRVGVLLVPVHYPDQLRQMAPPALPISEGAVAAAMAAPGFRGPKPRL	not soluble

— the DeepSol protein solubility set
